B1: UBN1(92–175) [human] / H3.3/H4 [human | X. laevis] (parent complex)
chain 1: NDEEKERHKVEALARKFEEKYGGKKRRKDRIQDLIDMGYGYDESDSFIDNSEAYDELVPASLTTKYGGFYINSGTLQFRQASES
chain 2: not shown
chain 3: not shown

Variants of: B1
Assay: fluorescence polarization competition binding; 10 nM FITC-UBN1(127–148), 6.5 μM H3.3/H4; 20 mM HEPES pH 7.5, 750 mM NaCl, 1 mM TCEP; parent: 1.66e+04 nM

| IC50 | Variant |
| --- | --- |
| 15.1 µM | chain 1 L34A |
| 29.3 µM | chain 1 E52A |
| 19.9 µM | chain 1 G40A |
| 13.8 µM | chain 1 Q32A |
| 16.4 µM | chain 1 Y54A |
| 16.3 µM | chain 1 A53I |
| 13.8 µM | chain 1 I35A |
| 14.4 µM | chain 1 Y39A |
| 21.1 µM | chain 1 D36A |
| 22.6 µM | chain 1 M37A |
| 22.9 µM | chain 1 E56A |
| 19.6 µM | chain 1 L57A |
| 19.6 µM | chain 1 D33A |
| 16.2 µM | chain 1 S46A |
| 67.8 µM | chain 1 G38A |
| 16.9 µM | chain 1 I31A |
| 23 µM | chain 1 D55A |

Source: publication PMC4510971 (2015)
